Results from the supplement of paper PMC10567573.

B1: KRT18 (parent)
chain: RAQYDELARKNREELDKYWSQQIE

Variants of: B1
Assay: protein stability index of a GFP-peptide fusion (GPS, HEK-293T) (PSI 1-6); higher = more stable
Details: c terminus: a fixed tail appended
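Further: lentivirally expressed fusions sorted by FACS into six bins by GFP to DsRed ratio, PSI derived from sequencing read proportions per bin multiplied by bin number.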

Q: Which protein stability index does the source give for RAQYDELARKPREELDKYWSQQIE [N11P] here?
A: 4.02

Q: Which protein stability index does the source give for RAQYDELARKEREELDKYWSQQIE [N11E] here?
A: 4.54

Q: Which protein stability index does the source give for RAQYDELARKFREELDKYWSQQIE [N11F] here?
A: 1.94

Q: Which protein stability index does the source give for RAQYDELARKCREELDKYWSQQIE [N11C] here?
A: 2.81

Q: Which protein stability index does the source give for RAQYDELARKAREELDKYWSQQIE [N11A] here?
A: 4

Q: With RAQYDELARKIREELDKYWSQQIE [N11I] as the variant, how does the protein stability index read?
A: 2.37

Q: Which protein stability index does the source give for RAQYDELARKTREELDKYWSQQIE [N11T] here?
A: 2.8

Q: Which protein stability index does the source give for RAQYDELARKMREELDKYWSQQIE [N11M] here?
A: 2.81

Q: Which protein stability index does the source give for RAQYDELARKGREELDKYWSQQIE [N11G] here?
A: 3.71

Q: Which protein stability index does the source give for RAQYDELARKVREELDKYWSQQIE [N11V] here?
A: 2.75

Q: For RAQYDELARKYREELDKYWSQQIE [N11Y], which protein stability index is on record?
A: 2.27

Q: Which protein stability index does the source give for RAQYDELARKHREELDKYWSQQIE [N11H] here?
A: 3.75

Q: With RAQYDELARKKREELDKYWSQQIE [N11K] as the variant, how does the protein stability index read?
A: 3.96

Q: With RAQYDELARKRREELDKYWSQQIE [N11R] as the variant, how does the protein stability index read?
A: 3.39

Q: Which protein stability index does the source give for RAQYDELARKLREELDKYWSQQIE [N11L] here?
A: 2.66

Q: With RAQYDELARKDREELDKYWSQQIE [N11D] as the variant, how does the protein stability index read?
A: 4.23

Q: For RAQYDELARKWREELDKYWSQQIE [N11W], which protein stability index is on record?
A: 2.63

Q: For RAQYDELARKQREELDKYWSQQIE [N11Q], which protein stability index is on record?
A: 3.87

Q: With RAQYDELARKSREELDKYWSQQIE [N11S] as the variant, how does the protein stability index read?
A: 4.15

Q: With RAQYDELARKNREQLDKYWSQQIE [E14Q] as the variant, how does the protein stability index read?
A: 3.85

Q: For RAQYDELARKNRERLDKYWSQQIE [E14R], which protein stability index is on record?
A: 2.87

Q: For RAQYDELARKNREYLDKYWSQQIE [E14Y], which protein stability index is on record?
A: 3.07

Q: Which protein stability index does the source give for RAQYDELARKNREILDKYWSQQIE [E14I] here?
A: 2.62

Q: Which protein stability index does the source give for RAQYDELARKNREPLDKYWSQQIE [E14P] here?
A: 3.81

Q: Which protein stability index does the source give for RAQYDELARKNRECLDKYWSQQIE [E14C] here?
A: 3.42

Q: With RAQYDELARKNREKLDKYWSQQIE [E14K] as the variant, how does the protein stability index read?
A: 2.94

Q: With RAQYDELARKNREWLDKYWSQQIE [E14W] as the variant, how does the protein stability index read?
A: 3.89

Q: For RAQYDELARKNRELLDKYWSQQIE [E14L], which protein stability index is on record?
A: 2.97

Q: With RAQYDELARKNRETLDKYWSQQIE [E14T] as the variant, how does the protein stability index read?
A: 3.56

Q: With RAQYDELARKNREALDKYWSQQIE [E14A] as the variant, how does the protein stability index read?
A: 3.82

Q: Which protein stability index does the source give for RAQYDELARKNREDLDKYWSQQIE [E14D] here?
A: 3.94

Q: Which protein stability index does the source give for RAQYDELARKNREVLDKYWSQQIE [E14V] here?
A: 3.62

Q: Which protein stability index does the source give for RAQYDELARKNRESLDKYWSQQIE [E14S] here?
A: 3.5

Q: For RAQYDELARKNREHLDKYWSQQIE [E14H], which protein stability index is on record?
A: 3.29

Q: Which protein stability index does the source give for RAQYDELARKNREFLDKYWSQQIE [E14F] here?
A: 2.5

Q: For RAQYDELARKNRENLDKYWSQQIE [E14N], which protein stability index is on record?
A: 3.04

Q: With RAQYDELARKNREMLDKYWSQQIE [E14M] as the variant, how does the protein stability index read?
A: 2.92

Q: For RAQYDELARKNREGLDKYWSQQIE [E14G], which protein stability index is on record?
A: 3.83

Q: Which protein stability index does the source give for RAQYDELARKNRQELDKYWSQQIE [E13Q] here?
A: 2.91

Q: For RAQYDELARKNRAELDKYWSQQIE [E13A], which protein stability index is on record?
A: 3.41

Q: For RAQYDELARKNRHELDKYWSQQIE [E13H], which protein stability index is on record?
A: 3.54

Q: With RAQYDELARKNRLELDKYWSQQIE [E13L] as the variant, how does the protein stability index read?
A: 3.07

Q: Which protein stability index does the source give for RAQYDELARKNRCELDKYWSQQIE [E13C] here?
A: 2.81

Q: With RAQYDELARKNRVELDKYWSQQIE [E13V] as the variant, how does the protein stability index read?
A: 2.07

Q: With RAQYDELARKNRIELDKYWSQQIE [E13I] as the variant, how does the protein stability index read?
A: 2.05

Q: Which protein stability index does the source give for RAQYDELARKNRPELDKYWSQQIE [E13P] here?
A: 2.99

Q: With RAQYDELARKNRFELDKYWSQQIE [E13F] as the variant, how does the protein stability index read?
A: 3.1

Q: For RAQYDELARKNRYELDKYWSQQIE [E13Y], which protein stability index is on record?
A: 3.05

Q: Which protein stability index does the source give for RAQYDELARKNRDELDKYWSQQIE [E13D] here?
A: 3.54

Q: For RAQYDELARKNRRELDKYWSQQIE [E13R], which protein stability index is on record?
A: 3.31

Q: Which protein stability index does the source give for RAQYDELARKNRGELDKYWSQQIE [E13G] here?
A: 3.92

Q: With RAQYDELARKNRNELDKYWSQQIE [E13N] as the variant, how does the protein stability index read?
A: 3.58

Q: With RAQYDELARKNRWELDKYWSQQIE [E13W] as the variant, how does the protein stability index read?
A: 2.65

Q: With RAQYDELARKNRKELDKYWSQQIE [E13K] as the variant, how does the protein stability index read?
A: 3.2

Q: For RAQYDELARKNRSELDKYWSQQIE [E13S], which protein stability index is on record?
A: 3.96

Q: With RAQYDELARKNRMELDKYWSQQIE [E13M] as the variant, how does the protein stability index read?
A: 2.82

Q: With RAQYDELARKNRTELDKYWSQQIE [E13T] as the variant, how does the protein stability index read?
A: 3.82

Q: With RAQYDELARKNREEKDKYWSQQIE [L15K] as the variant, how does the protein stability index read?
A: 3.87

Q: For RAQYDELARKNREECDKYWSQQIE [L15C], which protein stability index is on record?
A: 3.18

Q: With RAQYDELARKNREEYDKYWSQQIE [L15Y] as the variant, how does the protein stability index read?
A: 3.3

Q: With RAQYDELARKNREEQDKYWSQQIE [L15Q] as the variant, how does the protein stability index read?
A: 4.71

Q: With RAQYDELARKNREEHDKYWSQQIE [L15H] as the variant, how does the protein stability index read?
A: 4.25

Q: Which protein stability index does the source give for RAQYDELARKNREEFDKYWSQQIE [L15F] here?
A: 3.22

Q: Which protein stability index does the source give for RAQYDELARKNREEPDKYWSQQIE [L15P] here?
A: 4.6

Q: For RAQYDELARKNREEVDKYWSQQIE [L15V], which protein stability index is on record?
A: 3.41

Q: With RAQYDELARKNREEIDKYWSQQIE [L15I] as the variant, how does the protein stability index read?
A: 3.94

Q: For RAQYDELARKNREEDDKYWSQQIE [L15D], which protein stability index is on record?
A: 4.9

Q: For RAQYDELARKNREETDKYWSQQIE [L15T], which protein stability index is on record?
A: 4.1

Q: Which protein stability index does the source give for RAQYDELARKNREERDKYWSQQIE [L15R] here?
A: 4.22

Q: Which protein stability index does the source give for RAQYDELARKNREENDKYWSQQIE [L15N] here?
A: 3.57

Q: For RAQYDELARKNREEWDKYWSQQIE [L15W], which protein stability index is on record?
A: 1.95

Q: For RAQYDELARKNREEGDKYWSQQIE [L15G], which protein stability index is on record?
A: 4.07

Q: For RAQYDELARKNREESDKYWSQQIE [L15S], which protein stability index is on record?
A: 4.19

Q: Which protein stability index does the source give for RAQYDELARKNREEMDKYWSQQIE [L15M] here?
A: 4.06

Q: With RAQYDELARKNREEADKYWSQQIE [L15A] as the variant, how does the protein stability index read?
A: 4.37

Q: With RAQYDELARKNREEEDKYWSQQIE [L15E] as the variant, how does the protein stability index read?
A: 3.98

Q: Which protein stability index does the source give for RAQYDSLARKNREELDKYWSQQIE [E6S] here?
A: 3.24

Q: With RAQYDGLARKNREELDKYWSQQIE [E6G] as the variant, how does the protein stability index read?
A: 3.02

Q: With RAQYDYLARKNREELDKYWSQQIE [E6Y] as the variant, how does the protein stability index read?
A: 3.25

Q: Which protein stability index does the source give for RAQYDCLARKNREELDKYWSQQIE [E6C] here?
A: 2.3

Q: Which protein stability index does the source give for RAQYDVLARKNREELDKYWSQQIE [E6V] here?
A: 3.32

Q: Which protein stability index does the source give for RAQYDQLARKNREELDKYWSQQIE [E6Q] here?
A: 3.51

Q: For RAQYDNLARKNREELDKYWSQQIE [E6N], which protein stability index is on record?
A: 3.66

Q: For RAQYDLLARKNREELDKYWSQQIE [E6L], which protein stability index is on record?
A: 2.85

Q: With RAQYDKLARKNREELDKYWSQQIE [E6K] as the variant, how does the protein stability index read?
A: 3.48

Q: For RAQYDMLARKNREELDKYWSQQIE [E6M], which protein stability index is on record?
A: 2.99

Q: Which protein stability index does the source give for RAQYDPLARKNREELDKYWSQQIE [E6P] here?
A: 4.07

Q: With RAQYDWLARKNREELDKYWSQQIE [E6W] as the variant, how does the protein stability index read?
A: 2.42

Q: With RAQYDDLARKNREELDKYWSQQIE [E6D] as the variant, how does the protein stability index read?
A: 3.27

Q: Which protein stability index does the source give for RAQYDILARKNREELDKYWSQQIE [E6I] here?
A: 3.05

Q: With RAQYDFLARKNREELDKYWSQQIE [E6F] as the variant, how does the protein stability index read?
A: 3.15

Q: For RAQYDHLARKNREELDKYWSQQIE [E6H], which protein stability index is on record?
A: 3.41

Q: With RAQYDRLARKNREELDKYWSQQIE [E6R] as the variant, how does the protein stability index read?
A: 3.17

Q: For RAQYDTLARKNREELDKYWSQQIE [E6T], which protein stability index is on record?
A: 3.36
